Results on 41 sequences are retold here after the nanobody polyreactivity screen of Harvey et al. (2022).

The data set is described as follows: yeast display, Sf9 membrane polyspecificity reagent, FACS + sequencing; frameworks hold sequencing errors. An outline of the steps:
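Nanobodies came from a synthetic yeast display library in Saccharomyces cerevisiae BJ5465, induced with galactose for 36–48 hours and stained for 1 hour at 4 °C with 10% biotinylated, detergent-solubilized Sf9 membrane reagent. Cells were enriched on streptavidin microbeads and then FACS-sorted, with low and high (top ~1%) gates set on anti-HA fluorescence for expression and streptavidin fluorescence for reagent binding. Each polyreactivity label reflects the gate a clone came from. Genes were amplified by colony PCR, sequenced by MiSeq 2 × 250 and filtered by CDR length.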
Turning to “QVQLVESGGGLVQAGGSLRLSCAASGRTFYGNAMGWYRQAPGKERELVAAITTGGGNTYYADSVKGRFTISRDHAKNTVYLQMNRLKPEDTAVYYCAAYERKFYTVSRWYKLDYWGQGTQVTVSS”, the “polyreactivity (PSR sort gate)” value is “high polyreactivity”.

Regarding “QVQLVESGGGLVQAGGSLRLSCAASGRTFYGYAMGWYRQAPGKERELVAGISGRGTRTYYADSVKGRFTISRDNAKNTVYLQMNSLKPEDTAVYYCNAVSIGYYSQSLGLDYWGQGTQVTVSS”, the “polyreactivity (PSR sort gate)” value is reported as “high polyreactivity”.

Take “QVQLVESGGGLVQAGGSLRLSCAASGRTFYGYAMGWYRQAPGKERELVASISRDGSTNYADSVKGRFTISRDNAKNTVYLQMYSLKPEDTAVYYCAADIWYYRYPIYYYSYDYWGQGTQVTVSS”: the “polyreactivity (PSR sort gate)” value is “low polyreactivity”.

As for “QVQLVESGGGLVQAGGSLRLSCAASGRTFYGYAMGWYRQPPGKERELVATISGSGGTTYYADSVKGRFTISRDNAKNTVYLQMNSLKPEDTAVYYCAADRYLYFYWWPHVGGSPTYGYWGQGTQVTVSS”, the “polyreactivity (PSR sort gate)” value was “high polyreactivity”.

As for “QVQLVESGGGLVQAGGSLRLSCAASGRTFYHNAMGWYRQAPGKERELVATINSGGSTYADSVKGRFTISRDNAKNTVYLQMISLKPEDTAVYYCASTFWSRSRFYYRYDYWGQGTQVTVSS”, the “polyreactivity (PSR sort gate)” value was “high polyreactivity”.

Turning to “QVQLVESGGGLVQAGGSLRLSCAASGRTFYHYAMGWYRQAPGKERELVAAITYRGGNTYYADSVKGRFTISRDNAKNTVYLQMNSLKPEDTAVYFCAKQGVRRHYGYDYWGQGTQVTVSS”, the “polyreactivity (PSR sort gate)” value is on record as “high polyreactivity”.

As to “QVQLVESGGGLVQAGGSLRLSCAASGRTFYINAMGWYRQAPGKERELVATISRSGGDTYYADSVKGRFTISRDNAKNTVYIEMTSLKPEDTAVYFCNARQYYYRSGAYASRYLYNYWGQGTQVTVSS”, the “polyreactivity (PSR sort gate)” value was “high polyreactivity”.

“QVQLVESGGGLVQAGGSLRLSCAASGRTFYIYAMGWYRQAPGKERELVAAITSGTSSTYYADSVKGRFTISRDNAKNTVYLQMNSLKPEDTAVYYCAASSTGYGGSTYYYWGQGTQVTVSS”: the “polyreactivity (PSR sort gate)” value is given as “low polyreactivity”.

Regarding “QVQLVESGGGLVQAGGSLRLSCAASGRTFYIYAMGWYRQAPGKERELVAAITYSSGTTYYADSVKGRFTISRDNAKNTVYLQMNSLKPEDTAVYYCAADVGFNQFDYWGQGTQVTVSS”, the “polyreactivity (PSR sort gate)” value is recorded as “low polyreactivity”.

In the case of “QVQLVESGGGLVQAGGSLRLSCAASGRTFYKYAMGWYIQAPGKERELVAAISSRGGRTYYADSVKGRFTISRDNAKNTVYLQMNSLKPEDTAVYYCAADYAVEWWGNWYEYWGQGTQVTVSS”, the “polyreactivity (PSR sort gate)” value is “high polyreactivity”.

On to “QVQLVESGGGLVQAGGSLRLSCAASGRTFYKYAMGWYRQAPGKERELVAAINRIGGRTYYADSVKGRFTISRDNAKNTVYLQMNSLKPEDTAVYYCAAEFVGDNRHGYWGQGTQVTVSS”, for which the “polyreactivity (PSR sort gate)” value is given as “high polyreactivity”.

As to “QVQLVESGGGLVQAGGSLRLSCAASGRTFYLNVMGWYRQAPGKEREFVASISTTGGSTYYADSVKGRFTISRDNAKNTVYLQMNSLKPDDTAVYYCAASLRYWARNYWGQGTQVTVSS”, the “polyreactivity (PSR sort gate)” value is “high polyreactivity”.

“QVQLVESGGGLVQAGGSLRLSCAASGRTFYLYAMGWYRQAPGKERELVAAITWRGGSTYYADSVKGRFTISRDNAKNTVYLQMNSLKPEDTAVYYCSAVTFFYYSAVRYEYYYWGQGTQVTVSS”: the “polyreactivity (PSR sort gate)” value is given as “high polyreactivity”.

For the sequence “QVQLVESGGGLVQAGGSLRLSCAASGRTFYNAMGWYRQAPVKEMELVAAITTGGGTKYADSVKGRFTISRDNAKNTFYLQMNSLKPEDTAVYYCNTDEWYHFYHGAHKYDYWGQGTQVTLSS”, the “polyreactivity (PSR sort gate)” value is on record as “low polyreactivity”.

As for “QVQLVESGGGLVQAGGSLRLSCAASGRTFYNYAMGWYRQAPGKEREFVAAITFRTSSTYYADSVKGRFTISRDNAKNTVYLQMNSLKQEDTAVYYCNADRYWGYDYWGQGTQVTVSS”, the “polyreactivity (PSR sort gate)” value is on record as “high polyreactivity”.

Take “QVQLVESGGGLVQAGGSLRLSCAASGRTFYNYAMGWYRQAPGKERELVAAISGSGGSTYYADSVKGRFTISRDNAKNTVYLQMNSLKPEDTAVYYCAARKDSYYYRSYDSWGQGTQVTVSS”: the “polyreactivity (PSR sort gate)” value was “high polyreactivity”.

Take “QVQLVESGGGLVQAGGSLRLSCAASGRTFYNYAMGWYRQAPGKERELVATINWSGGRTYYADSVKGRFTISRDNAKNTVYLQMNSLKAEDTAVYYCAKTWLYQSNEYGYWGQGTQVTVSS”: the “polyreactivity (PSR sort gate)” value is “low polyreactivity”.

For “QVQLVESGGGLVQAGGSLRLSCAASGRTFYPNAMGWYRQAPGKERELVARITTRGGSTYYADSVKGRFTISRDNAKNTVYLQMNSLKPEATAVYYCAVDYNSDWAYDYWGQGTQVTVSS”, the “polyreactivity (PSR sort gate)” value is given as “high polyreactivity”.

Regarding “QVQLVESGGGLVQAGGSLRLSCAASGRTFYPYAMGWYRKAPVKERDLVAAISWSGGSTRYADSVKGRFTISRDNAKNTVDLQMNSLKPEDTAVYYCNTQYSWYYPADYDYWGQGTQVTVSS”, the “polyreactivity (PSR sort gate)” value is given as “low polyreactivity”.

With “QVQLVESGGGLVQAGGSLRLSCAASGRTFYPYAMGWYRQAPGKERELVAAISSGGSTTYADSVKGRFTISRDNAKNTVYLQMNSLKPEDTAVYYCAVYGTERLAFDYWGQGTQVTVSS”, the “polyreactivity (PSR sort gate)” value is recorded as “low polyreactivity”.

For “QVQLVESGGGLVQAGGSLRLSCAASGRTFYPYAMGWYRQAPGKERELVASINWSGASTYYADSVKGRFTISRDNAKNTVYLQMNSLKPEDTAVYYCAAYITYLSSRFWYGYWGQGTQVTVSS”, the “polyreactivity (PSR sort gate)” value is listed as “high polyreactivity”.

As for “QVQLVESGGGLVQAGGSLRLSCAASGRTFYPYDMGWYRQAPGKERELDAAISRSGGSTYYADSVKGRFTISRDNAKNSVYLQMNSLKPEDTAVYYCAAVYYSYSFVDHYDYWGQGTQVTVSS”, the “polyreactivity (PSR sort gate)” value is “low polyreactivity”.

With “QVQLVESGGGLVQAGGSLRLSCAASGRTFYPYVMGWYRQSPGKERELVASISWSGGSTYYADSVKGRFTFSRDNAKNSVYLQMNSLKPEDTAVYYCAALWPYGYWGQGTQVTVSS”, the “polyreactivity (PSR sort gate)” value was “low polyreactivity”.

“QVQLVESGGGLVQAGGSLRLSCAASGRTFYQYAMGWYRQAPGKERELVAAISRSGTSTYYADSVKGRFTISRDNAKITVYLQMNSLKPEDTAVYYCATSTGRGYSWGQGTQVTVSS”: the “polyreactivity (PSR sort gate)” value was “high polyreactivity”.

“QVQLVESGGGLVQAGGSLRLSCAASGRTFYQYAMGWYRQAPGKERELVAAISWSDGSTSYADSVKGRFTISRDNAKNTVYLQMNSLKQEDTAVYYCAKDWTGTKAIEYDYWGQGTQVTVSS”: the “polyreactivity (PSR sort gate)” value is on record as “low polyreactivity”.

As for “QVQLVESGGGLVQAGGSLRLSCAASGRTFYQYAMGWYRQAPGKERELVAAITTSGGSTYYADSVKGRFTISRDNAKNTVYLQMNSLKPEDTAVYYCAAPYTGYRERGSYKSDYWGQGTQVTVSS”, the “polyreactivity (PSR sort gate)” value is “low polyreactivity”.

For the sequence “QVQLVESGGGLVQAGGSLRLSCAASGRTFYQYTMGWYRQAPGKERELVATISDSTNYADSVKGRFTISRDNAKNTVYLQMNSLKPEDTAVYYCNARVRGLGKYESWGQGTQVTVSS”, the “polyreactivity (PSR sort gate)” value is “low polyreactivity”.

On to “QVQLVESGGGLVQAGGSLRLSCAASGRTFYRNAMGWSRQAPGKERELVAAISYRGGRTYYADSVKGRFTISRDNAKNTVYLQMNSLKPEDTAVYYCAADLRTRVPYDYWGQGTQVTVSS”, for which the “polyreactivity (PSR sort gate)” value is recorded as “high polyreactivity”.

Regarding “QVQLVESGGGLVQAGGSLRLSCAASGRTFYRNAMGWYRQAPGKERELVAAIRTRTGSTYYADSVKGRFTISRDNAKNTVYLQRNSLKPEDTAVYYCNASPYVNGRYGSWGQGTQVTVSS”, the “polyreactivity (PSR sort gate)” value is listed as “high polyreactivity”.

With “QVQLVESGGGLVQAGGSLRLSCAASGRTFYRNAMGWYRQAPGKERELVAAISGSGVRTYYADSVKGRFTISRDNAKNTVYLQMNSLKPEDTAVYYCARSVTWFRGRFSPDYGSWGQGTQVTVSS”, the “polyreactivity (PSR sort gate)” value is “high polyreactivity”.

Turning to “QVQLVESGGGLVQAGGSLRLSCAASGRTFYRNAMGWYRQAPGKERELVAAISRSGGRTYYADSVKGRFTISRDNAKNTVYLHMNSLKPEDTAVYYCNAQPTLAVADYDYWGQGTQVTVSS”, the “polyreactivity (PSR sort gate)” value is “high polyreactivity”.

Regarding “QVQLVESGGGLVQAGGSLRLSCAASGRTFYRNAMGWYRQAPGKERELVAAISRSGGRTYYADSVKGRFTISRDNAKNTVYLQMNSLKPEDTAVYYCNAQPTLAVADYDYWGQGTQVTVSS”, the “polyreactivity (PSR sort gate)” value is listed as “high polyreactivity”.

Regarding “QVQLVESGGGLVQAGGSLRLSCAASGRTFYRNAMGWYRQAPGKERELVAAISWRGGSTFYADSVKGRFTISRDNAKNTVYLQMNSLKPEDTAVYYCNAGSNSFSRVEYWGQGTQVTVSS”, the “polyreactivity (PSR sort gate)” value was “low polyreactivity”.

As to “QVQLVESGGGLVQAGGSLRLSCAASGRTFYRNAMGWYRQAPGKERELVAAITSGGSTYYADSVKGRFTISRDNAKNTVYLQINSLKPEDTAVYYCAKRKGWVPSRSWTPAFWGQGTQVTVSS”, the “polyreactivity (PSR sort gate)” value is listed as “low polyreactivity”.

For the sequence “QVQLVESGGGLVQAGGSLRLSCAASGRTFYRYAMGWYRQAPGKERELVAAISTRGGTTYYADSVKGRFTISRDNAKNTVYLQMNSLKPEDTAVYYCAADSVYAEDDSWGQGTQVTVSS”, the “polyreactivity (PSR sort gate)” value was “low polyreactivity”.

Consider “QVQLVESGGGLVQAGGSLRLSCAASGRTFYRYAMGWYRQAPGKERELVAAITTGGGSTYYADSVKGRFTISRDNAKNTVYLQMNSLKPEDTAVYYCNVYSSYTRRTLGDYWGQGTQVTVSS”, for which the “polyreactivity (PSR sort gate)” value was “high polyreactivity”.

“QVQLVESGGGLVQAGGSLRLSCAASGRTFYRYAMGWYRQAPGKERELVAAMSRSGTTYYADSVKGRFTISRDNAQNTVYFQMNSLKPEDTALYYCAAKPAARQRGGDYWGQGTQVTVSS”: the “polyreactivity (PSR sort gate)” value was “high polyreactivity”.

In the case of “QVQLVESGGGLVQAGGSLRLSCAASGRTFYRYAMGWYRQAPGKERELVATITLRGGRTYYADSVKGRFTISRDTAKNTVYLQMNSLKPEDTAVYYCAKYHWRLSFSRYPYDYWGQGTQVTVSS”, the “polyreactivity (PSR sort gate)” value is given as “high polyreactivity”.

With “QVQLVESGGGLVQAGGSLRLSCAASGRTFYRYAMGWYRQAPGKERLVAAITWNGGSTYYADSVKGRFTISRDNAKNTVYLQMNSLNPEDTAVYYCAATFGGVSWRRPHRFDYWGQGTQVTVSS”, the “polyreactivity (PSR sort gate)” value is reported as “high polyreactivity”.

On to “QVQLVESGGGLVQAGGSLRLSCAASGRTFYRYSMGWYRQAPAKERELVAAISSSGGRTYYADSVKGRFTISRDNAKNTVYLQMNSLKPEDTAVYYCIKAYYYWYDWGQGTQVTVSS”, for which the “polyreactivity (PSR sort gate)” value was “high polyreactivity”.

Turning to “QVQLVESGGGLVQAGGSLRLSCAASGRTFYRYTMGWYRQAPAKERELVAAISWSGGSTYYADSVKGRFTISRDNAKNTVYLQMNSLKPEDTAVNYCAKATYWLYVQWYTYGYWGQGTQVTVSS”, the “polyreactivity (PSR sort gate)” value is “high polyreactivity”.
